Reference: patent publication US7629443

How the values were obtained:
RBD-Fc (SARS-CoV; human) [1] = molecular target: RBD-Fc (SARS-CoV; human) (UniProt P59594); assay: competitive ELISA on coated RBD-Fc; competitor: biotinylated 45B5
RBD-Fc (SARS-CoV; human) [2] = molecular target: RBD-Fc (SARS-CoV; human) (UniProt P59594); assay: competitive ELISA on coated RBD-Fc; competitor: biotinylated 17H9
S1-C9 (SARS-CoV) = S1-C9 (SARS-CoV) (UniProt P59594); assay: ELISA, antigen coated 1 µg/ml, mAb 10 µg/ml
RBD-Fc (SARS-CoV; human) [3] = molecular target: RBD-Fc (SARS-CoV; human) (UniProt P59594); assay: ELISA, antigen coated 1 µg/ml, mAb 10 µg/ml
[4] = molecular target: DTT-reduced S1-C9 (SARS-CoV) (UniProt P59594); assay: ELISA, antigen coated 1 µg/ml, mAb 10 µg/ml
[5] = molecular target: DTT-reduced RBD-Fc (SARS-CoV; human) (UniProt P59594); assay: ELISA, antigen coated 1 µg/ml, mAb 10 µg/ml
RBD-Fc (SARS-CoV; human) [6] = molecular target: RBD-Fc (SARS-CoV; human) (UniProt P59594); assay: competitive ELISA on coated RBD-Fc; competitor: biotinylated 10E7
RBD-Fc (SARS-CoV; human) [7] = molecular target: RBD-Fc (SARS-CoV; human) (UniProt P59594); assay: competitive ELISA on coated RBD-Fc; competitor: biotinylated 11E12
[8] = molecular target: SARS-CoV S protein on SARS pseudovirus (SARS-CoV) (UniProt P59594); assay: cell-based or functional assay
RBD-Fc (SARS-CoV; human) [9] = molecular target: RBD-Fc (SARS-CoV; human) (UniProt P59594); assay: competitive ELISA on coated RBD-Fc; competitor: biotinylated 33G4

4D5 (antibody)
% inhibition (RBD-Fc (SARS-CoV; human) [1]): 1% | % inhibition (RBD-Fc (SARS-CoV; human) [2]): -10.5% | reactivity (absorbance at 450 nm) (S1-C9 (SARS-CoV)): 0.65 | reactivity (absorbance at 450 nm) (RBD-Fc (SARS-CoV; human) [3]): 0.88 | reactivity (absorbance at 450 nm) [4]: 0.94 | reactivity (absorbance at 450 nm) [5]: 1.36 | % inhibition (RBD-Fc (SARS-CoV; human) [6]): 13% | % inhibition (RBD-Fc (SARS-CoV; human) [7]): 10.6% | ND50, neutralization of SARS pseudovirus infection of 293T/ACE2 cells [8]: > 100 µg/mL | % inhibition (RBD-Fc (SARS-CoV; human) [9]): -11.1%
